Source: patent CN112111006A
Positions count from the first letter of the chain named.

B1: P32蛋白单克隆抗体,细胞株编号701 (antibody, V domains shown)
VH: QSAPGLVQASQCLSITCTVSGFSLTTYAVHWVRQPPGQGLEWQGVIWSGGRTDYNAAFMCRLSISKDNSNSQDFFKMNSLQADDTAIYYCARNYYGGSLDYWGQGTTLTVSS
VL: DIVLTQTPASLAVSLGQRATISSRASNSVSTSRYSYMHWNQQKPGQPPRLLIYLVSNLESGVPARFSGSGSGTDFTLNIHPVEEEDAATYYCQHIRELTFGGGTKLEIK
B2: P32蛋白单克隆抗体,细胞株编号901 (antibody, V domains shown)
VH: QVQLNQSGPGLVQPSQSLSITCTLSGFSLTTYAVHWVRQSPGKGLEWLGVIWIGGRTDYNAAFISRLSISKDNSKSQVFFEMNSLQPNDTAIYYCARNYYGGSFDYWGQGTTLTVS
VL: B1 VL with T7S, S23Y, A25D, N27K, R33G

Experiments:
[1] = molecular target: 牛结节性皮肤病病毒(LSDV) P32蛋白,原核表达,去掉C端跨膜区 (Lumpy skin disease virus (LSDV))
[2] = molecular target: 牛结节性皮肤病病毒(LSDV) P32蛋白,原核表达,去掉C端跨膜区 (Lumpy skin disease virus (LSDV)); experiment: ELISA of the ascites-purified monoclonal antibody on P32

Binder | 检测限 [1] [ng/mL] | ELISA效价 (titer (1:dilution)) [2]
B1 | 10 | > 128000
B2 | 10 | > 128000
